B1: Retinoic acid receptor beta, residues 85 to 161; numbered along this chain, P10826 (parent)
chain: YKPCFVCQDKSSGYHYGVSACEGCKGFFRRSIQKNMIYTCHRDKNCVINKVTRNRCQYCRLQKCFEVGMSKESVRND

Variants of: B1
Experiment: abundance fitness (aPCA) (normalised: wild type 0, dead -1); higher = more abundant; growth selection in yeast, the domain comes from the species named
Conditions: Homo sapiens

Abundance fitness, by site and new letter:
S12: L -0.216, T 0.067, W -0.106, N 0.023, R -0.32, I -0.096, G -0.242, H -0.034, V 0.011, K -0.207
C21: T -0.98, I -0.89, M -0.751, E -0.575, Y -0.885, S -0.933, D -0.904, A -0.809, F -1.14, G -0.76, W -0.839, N -0.501, Q -0.93, R -0.666, V -0.881, L -0.752, K -0.91
E22: I -0.267, P -0.324, S -0.239, Q -0.316, D -0.025, G -0.325, A -0.209, M -0.224, V -0.203, L -0.186, N -0.317, R -0.663, K -0.205, W -0.368, T -0.126
C7: W -0.656, E -1.23, V -0.879, N -0.615, D -0.724, A -0.991, T -0.438, M -0.753, F -0.999, L -0.832, I -0.806, K -0.879, S -0.868, G -1.05, H -0.932, Y -0.609, Q -1
C24: M -0.817, W -0.955, K -0.89, N -1.07, L -0.624, P -1.06, T -0.736, E -0.842, H -0.896, D -0.47, F -0.577, R -0.793, S -0.793, A -1.03, Y -0.309
K25: D 0.031, R -0.069, G -0.017, L 0.028, E 0.036, H -0.223, A 0.205, F 0.133, C 0.02, I 0.094, Q 0.122, N 0.133
V6: K -0.82, I -0.13, A -0.711, T -0.822, C -0.995, Q -0.926, W -0.795, N -0.873, S -0.907, F -0.374, E -1.02, R -0.83, M -0.76, L -0.81, G -0.746, P -0.849, H -0.748
S11: V -0.221, F -0.377, C -0.414, I -0.27, D 0, P -0.088, G -0.165, Q -0.33, N 0.173, T -0.254, Y -0.407, A -0.21, L -0.263, H -0.525, K -0.242
Q8: S 0.064, K 0, D 0.08, P -0.813, N -0.035, H 0.055, R -0.263, M 0.029, T 0.015, F -0.092, E 0.111, W -0.083, I -1.01, G 0.044, A 0.022, C -0.073, V -0.598
Y14: A 0.11, I 0.054, K 0.012, E -0.038, G -0.244, W 0.061, N -0.041, S -0.044, V 0.092, R -0.203, C -0.119, H 0.113, P 0.125, L 0.006, T 0.042
Y16: I -0.178, C -0.134, D 0.128, M -0.15, K -0.295, T -0.069, Q -0.027, F 0.035, E 0.29, L -0.045, V -0.062, N -0.08, W -0.126, P -0.115, A -0.062, S -0.072, G 0.025

From the Human Domainome abundance scans (Beltran et al. 2025)
